Reference: patent publication US8106004B2, “Methods of inhibiting tumor cell aggressiveness using the microenvironment of human embryonic stem cells” (Children's Memorial Hospital, priority 2006, dated 2012)

Assays:
Format in all cases: cell-based, human
[1] = system: Nodal; assay: Nodal expression in C8161 cells (Western blot, real time RT-PCR); settings: C8161 exposed 48 hrs to 0-1000 ng/mL recombinant Lefty
Description: A determination of the effects of H9 CMTX on Nodal expression in metastatic melanoma (C8161) and breast carcinoma (MDA-MB-231) cells was undertaken. […] Exposure to H9 CMTX similarly abrogates Nodal mRNA expression in the melanoma and breast carcinoma cells (FIG. 9C).
Protein lysates were prepared and quantified as previously described in Hess et al., 2001, Cancer Res. 61:3250-3255. Equal amounts of protein were separated by SDS-polyacrylamide gel electrophoresis under reducing conditions, and the resolved proteins were transferred onto Immobilon-P membranes (Millipore Corp., Bedford, Mass.). Membranes were blocked in 1% TBS, 0.1% Tween 20 (TBS-T) and 5% dry milk powder or 3% gelatin (for Nodal Westerns). Blots were incubated with anti-Nodal or anti-Lefty antibodies (Polyclonal rabbit anti-Nodal (H-110) 1:500 Santa Cruz Biotechnology, Santa Cruz, Calif.; Polyclonal goat anti-Lefty 1:500 R&D Systems, Minneapolis, Minn.), washed in TBS-T, and incubated with the appropriate horseradish peroxidase-labeled secondary antibody. Secondary antibodies were detected by enhanced chemiluminescence (Super Signal; Pierce, Rockford, Ill.) and exposure to autoradiography film (Molecular Technologies, St Louis, Mo.). Nodal protein was detected as two major bands at ˜48 and ˜35 kDa representing precursor and pro-Nodal respectively. Nodal often appeared as multiple bands, likely due to degradation of protein modifications. All experiments were done at least three times.
The derivation and phenotypic characteristics of the human melanoma cell lines have been previously described. Seftor, et. al., 2002, Clin. Experim. Metastas. 19:233-246; Seftor, et. al., 2005 Cancer Res. 65:10164-10169. The melanoma cell lines are maintained in RPMI 1640 medium (Invitrogen) supplemented with 10% fetal bovine serum (FBS, Gemini Bioproducts) and 0.1% gentamycin sulfate with the exception of C81-61 cells which are maintained in Ham's FIO medium supplemented with 15% FBS, 1X Mito+ (BD Bioscience) and gentamycin sulfate. […] The cultures are determined to be free of mycoplasma contamination using a PCR-based assay (Roche). […]

[2] = system: C8161 cells; assay: Soft agar / anchorage independent growth assay, C8161 cells; settings: for rescue of inhibition of in vitro clonogenicity: recombinant Nodal 100 ng/mL
Description: (§1) An in vitro colony forming assay was used to analyze colony-forming ability of poorly aggressive C81-61 cells, aggressive C8161 cells, C8161 cells treated with MO^Nodal and C8161 cells treated with MO^Nodal and rescued with recombinant Nodal (100 ng/mL). The assay was conducted using 50,000 cells suspended in 0.35% agarose in RPMI containing 10% serum, which were plated into 6-well dishes on 0.5% agar in the same medium. Colonies grew, and pictures were taken at day 7. After 2 weeks, colonies were stained with Crystal Violet and counted.
The derivation and phenotypic characteristics of the human melanoma cell lines have been previously described. Seftor, et. al., 2002, Clin. Experim. Metastas. 19:233-246; Seftor, et. al., 2005 Cancer Res. 65:10164-10169. The melanoma cell lines are maintained in RPMI 1640 medium (Invitrogen) supplemented with 10% fetal bovine serum (FBS, Gemini Bioproducts) and 0.1% gentamycin sulfate with the exception of C81-61 cells which are maintained in Ham's FIO medium supplemented with 15% FBS, 1X Mito+ (BD Bioscience) and gentamycin sulfate. Normal human melanocytes are purchased (Cascade Biologics) or isolated from neonatal foreskins. Seftor, et. al., 2005. A single cell suspension is prepared, added to plastic flasks for the adherence of melanocytes and the cells propagated in Medium 254 with Human Melanocyte Growth Supplement (Cascade Biologics) including, 100 units/ml penicillin, 100 μg/ml streptomycin, and 250 ng/mL amphotericin B. The human embryonic stem cell lines are cultured as previously described. Thomson, et. al., 1998, Science 282:1145-1147. Briefly, cells are grown in 6-well plates precoated with 0.1% porcine gelatin and containing 1.9×10^5 irradiated mouse embryonic fibroblasts (strain CF-1; ATCC) per well. The cells are maintained in medium containing DMEM/F12 (1:1), 20% knock-out serum replacement, non-essential minimal amino acids, L-glutamine (Invitrogen), […], and 4 ng/ml FGF-2 (R&D Systems), and are split with collagenase (1 mg/ml) before the colonies begin to overlap. The cultures are determined to be free of mycoplasma contamination using a PCR-based assay (Roche). The normal human neonatal epidermal melanocytes (HEMn-LP; Cascade Biologics, Portland Oreg.), myoepithelial cells (Hs 578 Bst; American Type Culture Collection (ATCC), Manassas, Va.) and primary mammary epithelial cells (HMEpC; Cell Applications Inc., San Diego Calif.) were maintained as per distributor instructions. Live umbilical cord blood stem cells (SC00125; New Jersey Stem Cell Resource at Coriell Institute for Medical Research) amniotic fluid derived stem cells (GM00473, GM00957A) and adult bone marrow derived mesenchymal stem cells (Stem Cell Technologies, Vancouver BC, Canada) were maintained under the recommended conditions. The HTR-8/SVneo is a well characterized immortalized human extravillous cytotrophoblast cell line, and was maintained as previously described Graham et al., 1993, Exp. Cell Res. 206:204-211. […] The expression vector for wild type Nodal was kindly provided by Dr. Daniel Constam (Swiss Institute for Experimental Cancer Research (ISREC), Epalinges, Switzerland) and was transfected into C81-61 cells as previously described. Le Good et al., 2005, Curr. Biol. 15:31-36. […]

[3] = system: MDA-MB-231 cells; assay: Soft agar / anchorage independent growth assay, MDA-MB-231 cells; settings: recombinant Nodal 100 ng/mL
Description: The melanoma cell lines are maintained in RPMI 1640 medium (Invitrogen) supplemented with 10% fetal bovine serum (FBS, Gemini Bioproducts) and 0.1% gentamycin sulfate with the exception of C81-61 cells which are maintained in Ham's FIO medium supplemented with 15% FBS, 1X Mito+ (BD Bioscience) and gentamycin sulfate. Normal human melanocytes are purchased (Cascade Biologics) or isolated from neonatal foreskins. […] A single cell suspension is prepared, added to plastic flasks for the adherence of melanocytes and the cells propagated in Medium 254 with Human Melanocyte Growth Supplement (Cascade Biologics) including, 100 units/ml penicillin, 100 μg/ml streptomycin, and 250 ng/mL amphotericin B. The human embryonic stem cell lines are cultured as previously described. […] Briefly, cells are grown in 6-well plates precoated with 0.1% porcine gelatin and containing 1.9×10^5 irradiated mouse embryonic fibroblasts (strain CF-1; ATCC) per well. […] The cultures are determined to be free of mycoplasma contamination using a PCR-based assay (Roche). […] The conditioned matrix is then analyzed by 2-D LDS-PAGE and Western blot directly, or reseeded with melanoma cells and incubated for an additional 3 days. […]

[4] = system: C81-61 cells; assay: Soft agar colony forming assay, C81-61 cells; settings: C81-61 cell line, rNodal
Description: as §1

| Molecule | Nodal protein expression (Western blot) [1] | rescue of inhibition of in vitro clonogenicity ([2]; C8161 exposed to H9 CMTX) | rescue of inhibition of in vitro clonogenicity ([2]; C8161 exposed to H9 Lefty-containing matrix) | rescue of reduced colony formation ([2]; C8161 treated with MONodal, rNodal 100 ng/mL) | rescue of inhibition of in vitro clonogenicity ([3]; MDA-MB-231 exposed to H9 CMTX) | rescue of inhibition of in vitro clonogenicity ([3]; MDA-MB-231 exposed to H9 Lefty-containing matrix) | colony formation [4] |
| --- | --- | --- | --- | --- | --- | --- | --- |
| rLeftyB: recombinant Lefty-B (protein, UniProt O00292 77-366, looked up) Left-right determination …: RFSQSFREVAGRFLASEASTHLLVFGMEQRLPPNSELVQAVLRLFQEPVPKAALHRHGRLSPRSAQARVTVEWLRVRDDGSNRTSLIDSRLVSVHESGWKAFDVTEAVNFWQQLSRPRQPLLLQVSVQREHLGPLASGAHKLVRFASQGAPAGLGEPQLELHTLDLRDYGAQGDCDPEAPMTEGTRCCRQEMYIDLQGMKWAKNWVLEPPGFLAYECVGTCQQPPEALAFNWPFLGPRQCIASETASLPMIVSIKEGGRTRPQVVSLPNMRVQKCSCASDGALVPRRLQP | can inhibit Nodal protein in C8161 cells, but at a higher doses than its hESC counterpart | – | – | – | – | – | – |
| rNodal: recombinant Nodal (R&D Systems), used at 100 ng/mL (protein, UniProt Q96S42 238-347, looked up) Nodal homolog: HHLPDRSQLCRKVKFQVDFNLIGWGSWIIYPKQYNAYRCEGECPNPVGEEFHPTNHAYIQSLLKRYQPHRVPSTCCAPVKTKPLSMLYVDNGRVLLDHHKDMIVEECGCL | – | partially rescued | completely rescued | rescued | partially rescued | completely rescued | did not induce colony formation |
